According to US20160368965A1 (IMMATICS BIOTECHNOLOGIES, published 2016):

Molecular target: T1, HLA-A*02:01 (human)
T1 construct: the tested peptide takes its place; also called peptide-receptive MHC molecules; MHC class I
Test: UV-ligand exchange, anti-β2m ELISA; grade of peptide exchange yield
Description: Candidate peptides for T cell based therapies according to the present invention were further tested for their MHC binding capacity (affinity). The individual peptide-MHC complexes were produced by UV-ligand exchange, where a UV-sensitive peptide is cleaved upon UV-irradiation, and exchanged with the peptide of interest as analyzed. Only peptide candidates that can effectively bind and stabilize the peptide-receptive MHC molecules prevent dissociation of the MHC complexes. To determine the yield of the exchange reaction, an ELISA was performed based on the detection of the light chain (β2m) of stabilized MHC complexes. The assay was performed as generally described in Rodenko et al. (Rodenko et al., 2006).
96 well MAXISorp plates (NUNC) were coated over night with 2 ug/ml streptavidin in PBS at room temperature, washed 4× and blocked for 1h at 37° C. in 2% BSA containing blocking buffer. Refolded HLA-A*02:01/MLA-001 monomers served as standards, covering the range of 15-500 ng/ml. Peptide-MHC monomers of the UV-exchange reaction were diluted 100 fold in blocking buffer. Samples were incubated for 1 h at 37° C., washed four times, incubated with 2 ug/ml HRP conjugated anti-β2m for 1h at 37° C., washed again and detected with TMB solution that is stopped with […]. Absorption was measured at 450 nm. Candidate peptides that show a high exchange yield (preferably higher than 50%, most preferred higher than 75%) are generally preferred for a generation and production of antibodies or fragments thereof, and/or T cell receptors or fragments thereof, as they show sufficient avidity to the MHC molecules and prevent dissociation of the MHC complexes.

Row | Binder | peptide exchange yield [%]
1 | ALYPGTDYTV [ALYPGTDYTV (SEQ ID NO: 102)] | 50 to 75
2 | YLTNEGIAHL [YLTNEGIAHL (SEQ ID NO: 92)] | ≥ 75
3 | SIDSEPALV [SIDSEPALV (SEQ ID NO: 93)] | 50 to 75
4 | VMMEEFVQL [VMMEEFVQL (SEQ ID NO: 94)] | 50 to 75
5 | GLLPALVAL [GLLPALVAL (SEQ ID NO: 87)] | 50 to 75
6 | IIDDTIFNL [IIDDTIFNL (SEQ ID NO: 88)] | 50 to 75
7 | GLGDFIFYSV [GLGDFIFYSV (SEQ ID NO: 86)] | ≥ 75
8 | KLADIQIEQL [KLADIQIEQL (SEQ ID NO: 89)] | 50 to 75
9 | AVAAVLTQV [AVAAVLTQV (SEQ ID NO: 103)] | 50 to 75
10 | ALAPATGGGSLLL [ALAPATGGGSLLL (SEQ ID NO: 96)] | 50 to 75
11 | ALESFLKQV [ALESFLKQV (SEQ ID NO: 99)] | 50 to 75
12 | KLLTPITTL [KLLTPITTL (SEQ ID NO: 90)] | 50 to 75
13 | LLFNDVQTL [LLFNDVQTL (SEQ ID NO: 91)] | 50 to 75
14 | ALDDMISTL [ALDDMISTL (SEQ ID NO: 97)] | 50 to 75
15 | ALADDDFLTV [ALADDDFLTV (SEQ ID NO: 95)] | 50 to 75
16 | ALVEENGIFEL [ALVEENGIFEL (SEQ ID NO: 101)] | 50 to 75
17 | QIIDAINKV [QIIDAINKV (SEQ ID NO: 9)] | 20 to 50
18 | ALDQKVRSV [ALDQKVRSV (SEQ ID NO: 98)] | 20 to 50
19 | ALFGAGPASI [ALFGAGPASI (SEQ ID NO: 100)] | 50 to 75
